US11529425B2, “Immunoconjugates comprising signal regulatory protein alpha” (DINGFU BIOTARGET CO., LTD., priority 2017, dated 2022)
“Also recorded” adds a separate entry of the source.

Tested on: RBC
Test: Binding to fresh RBC diluted 2500 times, flow cytometry
Conditions: 20 μg ml^−1, FIG. 6f
Procedure: Similarly, fresh RBC cell was diluted 2500 times, then it was incubated with 20 μg ml^−1 isotype control (human IgG1), hu56di-SIRPα, hu56di-CV1, SIRPα-Fc IgG1 and AB6.12 IgG1, respectively. The results were shown in FIG. 6f, in which serial numbers of 1, 2, 3, 4 and 5 correspond to isotype control, hu56di-SIRPα, hu56di-CV1, SIRPα-Fc IgG1 and AB6.12 IgG1.

B1: hu56di-CV1: heterodimer of hu56di-Fc9 and CV1-Fc6, Group 14 (protein)
chain 1: QVQLVESGGGLVQPGGSLRLSCAASGKMSSRRCMAWFRQAPGKERERVAKLLTTSGSTYLADSVKGRFTISRDNSKNTVYLQMNSLRAEDTAVYYCAADSFEDPTCTLVTSSGAFQYWGQGTLVTVSSGAPQVQLVESGGGLVQPGGSLRLSCAASGKMSSRRCMAWFRQAPGKERERVAKLLTTSGSTYLADSVKGRFTISRDNSKNTVYLQMNSLRAEDTAVYYCAADSFEDPTCTLVTSSGAFQYWGQGTLVTVSSEPKSSDKTHTCPPCPAPELLGGPSVFLFPPKPKDTLMISRTPEVTCVVVDVSHEDPEVKFNWYVDGVEVHNAKTKPREEQYNSTYRVVSVLTVLHQDWLNGKEYKCKVSNKALPAPIEKTISKAKGQPREPQVYTLPPCRDELTKNQVSLWCLVKGFYPSDIAVEWESNGQPENNYKTTPPVLDSDGSFFLYSALTVDKSRWQQGNVFSCSVMHEALHNHYTQKSLSLSPGK
chain 2: EEELQIIQPDKSVLVAAGETATLRCTITSLFPVGPIQWFRGAGPGRVLIYNQRQGPFPRVTTVSDTTKRNNMDFSIRIGNITPADAGTYYCIKFRKGSPDDVEFKSGAGTELSVRAKPSGGGGSDKTHTCPPCPAPELLGGPSVFLFPPKPKDTLMISRTPEVTCVVVDVSHEDPEVKFNWYVDGVEVHNAKTKPREEQYNSTYRVVSVLTVLHQDWLNGKEYKCKVSNKALPAPIEKTISKAKGQPREPQVYTLPPSRDELTKNQVSLSCGVKGFYPSDIAVEWESNGQPENNYKTTPPVLDSDGSFKLASKLTVDKSRWQQGNVFSCSVMHEALHNHYTQKSLSLSPGK
- binding to RBC: stronger binding to RBC than hu56di-SIRPα; also recorded: comparable binding to RBC with AB6.12 IgG1
